Results from PMC9687798, “Atypical Substrates of the Organic Cation Transporter 1” (Biomolecules, 2022).
“And” between values parts separate entries of the source, which are not always exact repeats. Identical values can stand only once. One block for each molecule: values may come before it.

Key:
[1] = target: T1, human OCT1*1 (wild-type) (Homo sapiens, UniProt O15245); assay: Cellular uptake ratio, OCT1-overexpressing HEK293 cells vs empty vector; type: cell-based; conditions: for OCT1 transport category: based on ratio uptake data at 1 µM
T1 sequence (O15245 1-554): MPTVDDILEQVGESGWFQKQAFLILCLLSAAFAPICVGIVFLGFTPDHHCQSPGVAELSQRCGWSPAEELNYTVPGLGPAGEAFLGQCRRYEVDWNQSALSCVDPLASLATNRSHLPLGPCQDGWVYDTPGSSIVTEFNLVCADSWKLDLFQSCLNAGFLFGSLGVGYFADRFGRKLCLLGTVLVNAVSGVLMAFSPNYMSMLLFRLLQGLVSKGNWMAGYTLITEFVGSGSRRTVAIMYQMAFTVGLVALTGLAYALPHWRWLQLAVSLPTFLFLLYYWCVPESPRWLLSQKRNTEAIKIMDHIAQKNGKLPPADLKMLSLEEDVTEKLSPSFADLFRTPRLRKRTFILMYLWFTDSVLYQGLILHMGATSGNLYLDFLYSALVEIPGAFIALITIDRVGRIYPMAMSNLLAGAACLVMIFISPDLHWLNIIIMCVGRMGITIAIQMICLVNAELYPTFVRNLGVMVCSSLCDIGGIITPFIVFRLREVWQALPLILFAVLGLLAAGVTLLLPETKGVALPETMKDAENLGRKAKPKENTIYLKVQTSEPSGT
Method: (§1) The wild-type cell lines of OCT1 and OCT2, as well as the variant cell lines OCT1*2 and *3, were generated using the Flp-In system (Thermo Fisher Scientific, Darmstadt, Germany) as described in previous publications. The cell line overexpressing OCT3 was a kind gift from Dr. Koepsell and Dr. Gorbulev (University of Würzburg, Germany). Cells transfected with the empty pcDNA5/FRT vector were used for the transport experiments as a control cell line. All cells were cultured approximately up to passage 30.
(§2) Forty-eight hours before the transport experiments, 600,000 cells were plated on 12-well plates pre-coated with poly-D-lysine and incubated at 37 °C with 5% CO2. The prepared 12-well plate with cells was positioned on a heating plate pre-warmed to 37 °C. After removing the medium, the cells were washed with 37 °C HBSS+ (10 mM HEPES in Hank’s balanced salt solution, pH 7.4). Then, one pre-defined concentration of a substrate was added to each well. The incubation period was stopped by adding 2 mL of 4 °C HBSS+ and removing the cells from the heating plate. The cells were washed twice with 4 °C HBSS+. For cell lysis, the cells were incubated for 15 min with 500 µL of 80% acetonitrile (LGC Standards, Wesel, Germany), which contained a respective internal standard (Table 1).
(§3) For concentration-dependent transport, the cells were incubated with defined substrate concentrations (0.1, 1, 10, 30, 100, 300, 600, 1000 µM) for the respective pre-defined incubation times. […] The uptake by a transporter was normalised to the uptake by empty vector-transfected cells. […] The results of transport experiments were normalized to the total protein concentration per well. Total protein quantification was performed using a bicinchoninic acid assay with bovine serum albumin as standard.
(§4) The ratios of cellular uptake were calculated by dividing the total uptake of transporter-overexpressing cells by the total uptake into empty vector transfected cells. The concentration-dependent cellular net uptake was used for analysis of transport kinetics by subtracting for each substrate concentration the uptake of empty vector-transfected cells from the uptake of transporter-overexpressing cells. […] The intrinsic clearance Clint was expressed with the ratio of Vmax and KM.

[2] = target: T2, OCT3 (Homo sapiens, UniProt O75751); assay: Cellular uptake ratio, OCT3-overexpressing HEK293 cells vs empty vector; type: cell-based; conditions: for OCT3 transport category: based on ratio uptake data at 1 µM
T2 construct: expressed in transfected cells; host or cells: HEK293, stably transfected; gift from Dr. Koepsell and Dr. Gorbulev (University of Würzburg)
T2 sequence (O75751 1-556): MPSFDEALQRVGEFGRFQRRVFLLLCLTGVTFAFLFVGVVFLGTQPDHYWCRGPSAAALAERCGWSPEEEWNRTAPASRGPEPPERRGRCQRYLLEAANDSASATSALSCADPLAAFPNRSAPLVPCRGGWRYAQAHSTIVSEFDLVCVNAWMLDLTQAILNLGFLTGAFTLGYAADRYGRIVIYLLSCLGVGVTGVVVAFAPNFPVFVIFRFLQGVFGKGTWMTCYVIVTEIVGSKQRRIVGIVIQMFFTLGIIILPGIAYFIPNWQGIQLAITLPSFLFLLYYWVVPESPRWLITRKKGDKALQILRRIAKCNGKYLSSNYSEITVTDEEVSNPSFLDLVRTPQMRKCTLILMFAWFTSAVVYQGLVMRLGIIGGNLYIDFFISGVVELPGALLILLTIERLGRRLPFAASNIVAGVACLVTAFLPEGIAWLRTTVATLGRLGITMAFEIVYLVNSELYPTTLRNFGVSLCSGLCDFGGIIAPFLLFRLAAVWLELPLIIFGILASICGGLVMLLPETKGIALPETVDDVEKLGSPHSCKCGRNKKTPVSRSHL
Method: as §1, §2, §3, §4

[3] = target: T1, human OCT1*1 (wild-type); assay: Concentration-dependent uptake (transport kinetics) in HEK293 cells overexpressing OCT1 wild-type; conditions: for Clint (±SEM): intrinsic clearance = ratio of Vmax and KM, OCT1 wild-type
[4] = target: OCT1 (wild-type, OCT1*1) (Homo sapiens, UniProt O15245); assay: as above; conditions: human, HEK293 cells stably overexpressing human OCT1*1 (wild-type), pH 7.4, KM (±SEM), net uptake (OCT1 minus empty vector), HEK293, 0.1-1000 µM substrate, Michaelis–Menten
[5] = target: T3, wild-type human OCT2 (Homo sapiens, UniProt O15244); assay: Cellular uptake ratio, OCT2-overexpressing HEK293 cells vs empty vector; type: cell-based; conditions: based on ratio uptake data at 1 µM
T3 sequence (O15244 1-555): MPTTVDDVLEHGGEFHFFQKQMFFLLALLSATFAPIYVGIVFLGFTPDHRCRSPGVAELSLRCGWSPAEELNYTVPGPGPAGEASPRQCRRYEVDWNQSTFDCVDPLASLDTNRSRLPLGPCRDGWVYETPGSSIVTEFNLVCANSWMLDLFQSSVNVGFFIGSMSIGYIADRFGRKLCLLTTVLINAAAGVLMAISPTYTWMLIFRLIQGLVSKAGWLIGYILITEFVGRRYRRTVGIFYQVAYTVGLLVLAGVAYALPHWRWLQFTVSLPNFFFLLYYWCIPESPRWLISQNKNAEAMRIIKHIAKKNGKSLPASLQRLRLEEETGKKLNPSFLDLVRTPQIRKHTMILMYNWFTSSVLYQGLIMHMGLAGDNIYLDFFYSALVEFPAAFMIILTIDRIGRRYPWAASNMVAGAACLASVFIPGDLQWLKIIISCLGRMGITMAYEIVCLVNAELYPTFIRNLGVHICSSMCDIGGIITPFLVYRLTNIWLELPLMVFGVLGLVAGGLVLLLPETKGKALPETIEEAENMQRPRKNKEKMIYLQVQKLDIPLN
Method: as §1, §2, §3, §4

[6] = Human pharmacokinetic background values; type: in vivo; conditions: blood, conversion of the KM of about 60 µM, read-out: blood concentration corresponding to KM
[7] = human; no reference given; cited from earlier work
[8] = test system: hCMEC/D3; conditions: BBB-representing cell line hCMEC/D3; cited from earlier work
[9] = substrate: CCCCC[C@H](O)/C=C/[C@H]1[C@H](O)CC(=O)[C@@H]1C/C=C\CCCC(=O)O; assay: cells, lysate or membranes; conditions: pH 7.4
[10] = substrate: N=C(N)c1ccc(OCCCCCOc2ccc(C(=N)N)cc2)cc1; assay: cells, lysate or membranes; conditions: other: net uptake (OCT1 minus empty vector), HEK293, 0.1-1000 µM substrate, Michaelis–Menten; pH 7.4
[11] = substrate: COc1cc(Cc2cnc(N)nc2N)cc(OC)c1OC; assay: cells, lysate or membranes; conditions: other: net uptake (OCT1 minus empty vector), HEK293, 0.1-1000 µM substrate, Michaelis–Menten; pH 7.4
[12] = substrate: Nc1ccn([C@H]2CC[C@@H](CO)O2)c(=O)n1; assay: cells, lysate or membranes; conditions: other: net uptake (OCT1 minus empty vector), HEK293, 0.1-1000 µM substrate, Michaelis–Menten; pH 7.4
[13] = substrate: Nc1nc(=O)n([C@@H]2CS[C@H](CO)O2)cc1F; assay: cells, lysate or membranes; conditions: other: net uptake (OCT1 minus empty vector), HEK293, 0.1-1000 µM substrate, Michaelis–Menten; pH 7.4
[14] = substrate: Nc1ccn([C@@H]2CS[C@H](CO)O2)c(=O)n1; assay: cells, lysate or membranes; conditions: other: net uptake (OCT1 minus empty vector), HEK293, 0.1-1000 µM substrate, Michaelis–Menten; pH 7.4
[15] = substrate: Nc1nc2c(ncn2COCCO)c(=O)[nH]1; assay: cells, lysate or membranes; conditions: other: net uptake (OCT1 minus empty vector), HEK293, 0.1-1000 µM substrate, Michaelis–Menten; pH 7.4
[16] = substrate: C[C@](N)(Cc1ccc(O)c(O)c1)C(=O)O; assay: cells, lysate or membranes; conditions: other: net uptake (OCT1 minus empty vector), HEK293, 0.1-1000 µM substrate, Michaelis–Menten; pH 7.4
[17] = substrate: C[N+]1(C)CCC[C@H]1C(=O)[O-]; assay: cells, lysate or membranes; conditions: other: net uptake (OCT1 minus empty vector), HEK293, 0.1-1000 µM substrate, Michaelis–Menten; pH 7.4
[18] = substrate: CNS(=O)(=O)Cc1ccc2[nH]cc(CCN(C)C)c2c1; assay: cells, lysate or membranes; conditions: other: net uptake (OCT1 minus empty vector), HEK293, 0.1-1000 µM substrate, Michaelis–Menten; pH 7.4
[19] = substrate: C[C@H]1COc2c(N3CCN(C)CC3)c(F)cc3c(=O)c(C(=O)O)cn1c23; assay: cells, lysate or membranes; conditions: other: net uptake (OCT1 minus empty vector), HEK293, 0.1-1000 µM substrate, Michaelis–Menten; pH 7.4
[20] = substrate: N[C@@H](Cc1ccc(O)c(O)c1)C(=O)O; assay: cells, lysate or membranes; conditions: other: net uptake (OCT1 minus empty vector), HEK293, 0.1-1000 µM substrate, Michaelis–Menten; pH 7.4
[21] = other: net uptake (OCT1 minus empty vector), HEK293, 0.1-1000 µM substrate, Michaelis–Menten

- Vmax (±SEM) ([3]; net uptake (OCT1 minus empty vector), HEK293, 0.1-1000 µM substrate, Michaelis–Menten): 1047 ± 123 pmol/mg Protein/min
- Km [4]: 54.5 ± 7.2 µM
Molecule: CNC(=C[N+](=O)[O-])NCCSCc1ccc(CN(C)C)o1 [Ranitidin, ranitidine]
- OCT1 transport category [1]: ++ (very good substrates of OCTs that have an intrinsic clearance >15 or show an uptake ratio >10)
- OCT3 transport category [2]: 0 (no transport by OCT1, OCT2, and OCT3 occurred (i.e., no kinetic parameters or uptake ratio <2 without significance))
- OCT2 transport category [5]: + (good substrates of OCTs when the intrinsic clearance is between 5–15 or the ratio is 2–10)

- uptake ratio by OCT1 (normalised to empty vector) ([1]; 1 µM and 100 µM substance): up to 30
- Km [6]: ~17.8 µg/mL
- uptake by OCT3 (normalised to empty vector) ([2]; 1 µM substance): relevant uptake
- Clint (±SEM) [3]: 36.8 ± 7.32 µL/mg Protein/min
Molecule: CNS(=O)(=O)Cc1ccc2[nH]cc(CCN(C)C)c2c1 [Sumatriptan, sumatriptan]
- OCT1 transport category [1]: ++ (very good substrates of OCTs that have an intrinsic clearance >15 or show an uptake ratio >10)
- typical human maximum blood concentration [7]: about 30 µg/L
- OCT3 transport category [2]: + (good substrates of OCTs when the intrinsic clearance is between 5–15 or the ratio is 2–10)
- OCT2 transport category [5]: ++ (very good substrates of OCTs that have an intrinsic clearance >15 or show an uptake ratio >10)

- Clint (±SEM) [3]: 2.77 ± 5.66 µL/mg Protein/min
Molecule: Nc1nnc(-c2cccc(Cl)c2Cl)c(N)n1 [Lamotrigine, lamotrigine]
- OCT3 transport category [2]: +/− (poor transport with a Clint < 5 or ratio between 1–2 with statistical significance (p < 0.05))
- Km [8]: 62 µM

B1: human OCT1*1 (wild-type) (Homo sapiens) (protein)
chain: MPTVDDILEQVGESGWFQKQAFLILCLLSAAFAPICVGIVFLGFTPDHHCQSPGVAELSQRCGWSPAEELNYTVPGLGPAGEAFLGQCRRYEVDWNQSALSCVDPLASLATNRSHLPLGPCQDGWVYDTPGSSIVTEFNLVCADSWKLDLFQSCLNAGFLFGSLGVGYFADRFGRKLCLLGTVLVNAVSGVLMAFSPNYMSMLLFRLLQGLVSKGNWMAGYTLITEFVGSGSRRTVAIMYQMAFTVGLVALTGLAYALPHWRWLQLAVSLPTFLFLLYYWCVPESPRWLLSQKRNTEAIKIMDHIAQKNGKLPPADLKMLSLEEDVTEKLSPSFADLFRTPRLRKRTFILMYLWFTDSVLYQGLILHMGATSGNLYLDFLYSALVEIPGAFIALITIDRVGRIYPMAMSNLLAGAACLVMIFISPDLHWLNIIIMCVGRMGITIAIQMICLVNAELYPTFVRNLGVMVCSSLCDIGGIITPFIVFRLREVWQALPLILFAVLGLLAAGVTLLLPETKGVALPETMKDAENLGRKAKPKENTIYLKVQTSEPSGT
- Km ([9]; other: OCT1 wild-type, rounded in discussion): 1000 µM
- Km [9, 21]: 1177 ± 744 µM
- Vmax [9, 21]: 0.00412 µmol/min/mg
- Vmax/Km [9, 21]: 3.5 µL/min/mg
- Km [10]: 124 ± 136 µM
- Km [11]: 4.78 ± 1.24 µM
- Km [12]: 1194 ± 193 µM
- Vmax [12]: 0.00307 µmol/min/mg
- Vmax/Km [12]: 2.57 µL/min/mg
- Km [13]: 1123 ± 335 µM
- Vmax [13]: 0.0069 µmol/min/mg
- Vmax/Km [13]: 6.15 µL/min/mg
- Km [14]: 232 ± 43.0 µM
- Km [15]: 142 ± 189 µM
- Km [16]: 647 ± 335.6 µM
- Vmax [16]: 0.00384 µmol/min/mg
- Vmax/Km [16]: 5.94 µL/min/mg
- Km [17]: 881 ± 910 µM
- Km [18]: 60 µM and 58.9 ± 5.1 µM
- Vmax [18]: 0.00217 µmol/min/mg
- Vmax/Km [18]: 36.8 µL/min/mg
- Km [19]: 3326 ± 1458 µM
- Km [20]: 363 ± 163 µM
